Assay results taken from IntAct's records for PubMed 20700104.

B1: Caspase Dronc (Drosophila melanogaster (Fruit fly)), Q9XYF4 (parent)
chain: MQPPELEIGMPKRHREHIRKNLNILVEWTNYERLAMECVQQGILTVQMLRNTQDLNGKPFNMDEKDVRVEQHRRLLLKITQRGPTAYNLLINALRNINCLDAAVLLESVDESDSRPPFISLNERRTSRKSADIVDTPSPEASEGPCVSKLRNEPLGALTPYVGVVDGPEVKKSKKIHGGDSAILGTYKMQSRFNRGVLLMVNIMDYPDQNRRRIGAEKDSKSLIHLFQELNFTIFPYGNVNQDQFFKLLTMVTSSSYVQNTECFVMVLMTHGNSVEGKEKVEFCDGSVVDMQKIKDHFQTAKCPYLVNKPKVLMFPFCRGDEYDLGHPKNQGNLMEPVYTAQEEKWPDTQTEGIPSPSTNVPSLADTLVCYANTPGYVTHRDLDTGSWYIQKFCQVMADHAHDTDLEDILKKTSEAVGNKRTKKGSMQTGAYDNLGFNKKLYFNPGFFNE
partner: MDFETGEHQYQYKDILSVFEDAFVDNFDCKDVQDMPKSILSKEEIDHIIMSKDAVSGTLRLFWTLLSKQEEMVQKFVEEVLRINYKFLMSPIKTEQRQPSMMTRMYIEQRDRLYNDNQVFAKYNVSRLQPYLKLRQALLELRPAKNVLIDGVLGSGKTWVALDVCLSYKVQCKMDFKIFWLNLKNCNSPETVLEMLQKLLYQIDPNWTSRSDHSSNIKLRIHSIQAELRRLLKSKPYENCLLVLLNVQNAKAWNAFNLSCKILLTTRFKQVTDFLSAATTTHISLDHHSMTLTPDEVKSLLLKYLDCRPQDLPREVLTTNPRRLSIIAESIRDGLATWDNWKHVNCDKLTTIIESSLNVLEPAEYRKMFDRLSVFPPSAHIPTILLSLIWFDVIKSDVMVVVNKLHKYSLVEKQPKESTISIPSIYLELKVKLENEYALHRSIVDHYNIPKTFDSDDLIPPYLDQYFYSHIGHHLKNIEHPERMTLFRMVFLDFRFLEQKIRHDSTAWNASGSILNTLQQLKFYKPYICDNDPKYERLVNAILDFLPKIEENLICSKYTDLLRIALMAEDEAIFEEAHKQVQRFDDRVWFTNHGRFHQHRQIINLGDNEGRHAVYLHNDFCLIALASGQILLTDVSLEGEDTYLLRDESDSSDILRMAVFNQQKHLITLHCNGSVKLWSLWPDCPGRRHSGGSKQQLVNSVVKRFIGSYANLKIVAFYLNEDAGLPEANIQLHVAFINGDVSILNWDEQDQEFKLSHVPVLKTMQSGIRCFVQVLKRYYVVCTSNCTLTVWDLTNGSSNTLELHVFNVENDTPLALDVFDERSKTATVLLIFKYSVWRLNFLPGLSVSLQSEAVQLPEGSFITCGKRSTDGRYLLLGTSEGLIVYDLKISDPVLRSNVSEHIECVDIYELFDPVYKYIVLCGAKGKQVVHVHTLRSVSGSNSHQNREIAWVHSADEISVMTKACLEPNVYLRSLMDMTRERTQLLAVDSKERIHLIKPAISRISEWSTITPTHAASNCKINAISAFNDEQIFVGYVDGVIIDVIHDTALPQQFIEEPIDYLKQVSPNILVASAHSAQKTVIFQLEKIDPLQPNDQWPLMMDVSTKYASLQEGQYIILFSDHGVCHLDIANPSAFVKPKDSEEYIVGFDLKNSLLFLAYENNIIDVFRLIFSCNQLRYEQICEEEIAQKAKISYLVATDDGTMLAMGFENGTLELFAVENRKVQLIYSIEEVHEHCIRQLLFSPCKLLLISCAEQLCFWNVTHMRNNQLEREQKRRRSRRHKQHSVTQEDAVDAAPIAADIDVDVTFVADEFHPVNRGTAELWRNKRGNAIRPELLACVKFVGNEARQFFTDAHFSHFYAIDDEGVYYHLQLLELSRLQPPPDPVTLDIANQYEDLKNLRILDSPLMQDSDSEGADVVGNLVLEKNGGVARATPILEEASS
B2: Caspase Dronc (Drosophila melanogaster (Fruit fly)), Q9XYF4 (parent)
chain: B1 chain

Variants of: B1
Conditions: with apaf_drome Dark

effect of a mutation on the interaction | Variant
increasing interaction | MQPPELEIGMPKRHREHIRKNLNILVEWTNYERLAMECVQQGILTVQMLRNTQDLNGKPFNMDEKDVRVEQHRRLLLKITQRGPTAYNLLINALRNINCLDAAVLLESVDESDSRPPFISLNERRTSRKAADIVDTPSPEASEGPCVSKLRNEPLGALTPYVGVVDGPEVKKSKKIHGGDSAILGTYKMQSRFNRGVLLMVNIMDYPDQNRRRIGAEKDSKSLIHLFQELNFTIFPYGNVNQDQFFKLLTMVTSSSYVQNTECFVMVLMTHGNSVEGKEKVEFCDGSVVDMQKIKDHFQTAKCPYLVNKPKVLMFPFCRGDEYDLGHPKNQGNLMEPVYTAQEEKWPDTQTEGIPSPSTNVPSLADTLVCYANTPGYVTHRDLDTGSWYIQKFCQVMADHAHDTDLEDILKKTSEAVGNKRTKKGSMQTGAYDNLGFNKKLYFNPGFFNE [S130A]
increasing interaction | MQPPELEIGMPKRHREHIRKNLNILVEWTNYERLAMECVQQGILTVQMLRNTQDLNGKPFNMDEKDVRVEQHRRLLLKITQRGPTAYNLLINALRNINCLDAAVLLESVDESDSRPPFISLNERRTSRKSADIVDTPSPEASEGPCVSKLRNEPLGALTPYVGVVDGPEVKKSKKIHGGDSAILGTYKMQSRFNRGVLLMVNIMDYPDQNRRRIGAEKDSKSLIHLFQELNFTIFPYGNVNQDQFFKLLTMVTSSSYVQNTECFVMVLMTHGNSVEGKEKVEFCDGSVVDMQKIKDHFQTAKCPYLVNKPKVLMFPFARGDEYDLGHPKNQGNLMEPVYTAQEEKWPDTQTEGIPSPSTNVPSLADTLVCYANTPGYVTHRDLDTGSWYIQKFCQVMADHAHDTDLEDILKKTSEAVGNKRTKKGSMQTGAYDNLGFNKKLYFNPGFFNE [C318A]

Variants of: B2
Conditions: with kcc2a_drome CaMKII

effect of a mutation on the interaction | Variant
disrupting interaction | MQPPELEIGMPKRHREHIRKNLNILVEWTNYERLAMECVQQGILTVQMLRNTQDLNGKPFNMDEKDVRVEQHRRLLLKITQRGPTAYNLLINALRNINCLDAAVLLESVDESDSRPPFISLNERRTSRKAADIVDTPSPEASEGPCVSKLRNEPLGALTPYVGVVDGPEVKKSKKIHGGDSAILGTYKMQSRFNRGVLLMVNIMDYPDQNRRRIGAEKDSKSLIHLFQELNFTIFPYGNVNQDQFFKLLTMVTSSSYVQNTECFVMVLMTHGNSVEGKEKVEFCDGSVVDMQKIKDHFQTAKCPYLVNKPKVLMFPFCRGDEYDLGHPKNQGNLMEPVYTAQEEKWPDTQTEGIPSPSTNVPSLADTLVCYANTPGYVTHRDLDTGSWYIQKFCQVMADHAHDTDLEDILKKTSEAVGNKRTKKGSMQTGAYDNLGFNKKLYFNPGFFNE [S130A]
